Common to all, as to assay: PDC activity by ADH-coupled assay, kinetic parameters for pyruvate
Substrate in data set [1]: CC(=O)C(=O)O
In kind it is biochemical, Acetobacter pasteurianus. The note with it: other: ApaPDC. The text has this: (ii) Purification of A. pasteurianus PDC—PDC was purified from A. pasteurianus and E. coli ER1648(pJAM304) using heat-treatment, Q-Sepharose, Superdex 200, and hydroxyapatite as described for the Z. palmae PDC with the following modifications. Cells were passed through a French pressure cell at 30,000 lb per in^2. The PDC activity, which was eluted at 0.17 to 0.26 M NaCl from the Q-Sepharose column, was pooled and concentrated by dialysis against PEG8000 prior to loading onto the Superdex 200 column.
(§1) PDC Quantitation and Enzyme Activity Assay—Polypeptide concentration was determined using Bradford reagent with bovine serum albumin as the standard (BioRad). PDC activity was measured by the coupled assay with baker's yeast alcohol dehydrogenase (ADH) (Sigma-Aldrich, St. Louis, Mo.) as previously described (11). The reaction mixture contained 0.15 mM NADH, 5 mM MgCl2, 0.1 mM TPP, 5 mM pyruvate, and 10 U ADH in 50 mM sodium citrate buffer at pH 5.0 and was measured at 25° C. unless otherwise indicated. One unit of enzyme activity is defined as the amount of enzyme that generates 1 μmol of acetaldehyde per min.
(§2) As a further comparison, the kinetic constants of all four bacterial PDC polypeptides were determined at their pH optimum as well as at pH 7.0 (Table 3). […]

Substrate in data set [2]: CC(=O)C(=O)O
In kind it is biochemical, Zymomonas mobilis. The note with it: other: ZmoPDC. The protocol:
All procedures were performed at room temperature and all purification buffers contained 1 mM TPP and 1 mM MgCl2 unless otherwise indicated. S. ventriculi PDC was purified from recombinant E. coli BL21-CodonPlus-RIL(pJAM419) and Rosetta (DE3)(pRARE, pJAM419) as previously described (45). Z. mobilis PDC was purified from recombinant E. coli DH5α (pLOI276) (11) using thermal treatment, Q-Sepharose, and Superdex 200 procedures as described below for the Z. palmae PDC with the exception that the Z. mobilis PDC was eluted from Q-Sepharose at 0.22 to 0.32 M NaCl.
as §1, §2

Substrate in data set [3]: CC(=O)C(=O)O
In kind it is biochemical, Zymobacter palmae. The note with it: other: ZpaPDC. The protocol: (i) Purification of Z. palmae PDC—Z. palmae and E. coli DH5α (pJAM3440) cells were grown to stationary phase and harvested by centrifugation at 10,000×g (10 min, 4° C.). Cells (12 to 15 g wet wt) were resuspended in 6 volumes of 50 mM sodium phosphate buffer at pH 6.5 containing 1 mM TPP and 1 mM MgCl2 (buffer A) and passed through a chilled French pressure cell at 20,000 lb per in^2. Cell debris was removed by centrifugation at 16,000×g (20 min, 4° C.). Cell lysate was heated to 60° C. for 30 min, chilled on ice for 15 min, and centrifuged at 16,000×g (30 min at 4° C.) to remove denatured polypeptides. […]
PDC Quantitation and Enzyme Activity Assay—Polypeptide concentration was determined using Bradford reagent with bovine serum albumin as the standard (BioRad). PDC activity was measured by the coupled assay with baker's yeast alcohol dehydrogenase (ADH) (Sigma-Aldrich, St. Louis, Mo.) as previously described (11). The reaction mixture contained 0.15 mM NADH, 5 mM MgCl2, 0.1 mM TPP, 5 mM pyruvate, and 10 U ADH in 50 mM sodium citrate buffer at pH 5.0 and was measured at 25° C. unless otherwise indicated. […]
as §2

[4] abbreviates: pH 7.0, normal Michaelis-Menten kinetics, pH 7.0, 25.0 °C.

The results in this text go back to patent US7326551B2, “Cloning and sequencing of pyruvate decarboxylase (PDC) genes from bacteria and uses therefor” (University of Florida Research Foundation, Inc., priority 2001, dated 2008).

In general, Km refers to the substrate concentration at which the rate is half of its maximum.

B1: Acetobacter pasteurianus pyruvate decarboxylase (ApaPDC), recombinant, wild type, SEQ ID NO:4 (Acetobacter pasteurianus) (protein)
chain: MTYTVGMYLAERLVQIGLKHHFAVGGDYNLVLLDQLLLNKDMKQIYCCNELNCGFSAEGYARSNGAAAAVVTFSVGAISAMNALGGAYAENLPVILISGAPNSNDQGTGHILHHTIGKTDYSYQLEMARQVTCAAESITDAHSAPAKIDHVIRTALRERKPAYLDIACNIASEPCVRPGPVSSLLSEPEIDHTSLKAAVDATVALLKNRPAPVMLLGSKLRAANALAATETLADKLQCAVTIMAAAKGFFPEDHAGFRGLYWGEVSNPGVQELVETSDALLCIAPVFNDYSTVGWSGMPKGPNVILAEPDRVTVDGRAYDGFTLRAFLQALAEKAPARPASAQKSSVPTCSLTATSDEAGLTNDEIVRHINALLTSNTTLVAETGDSWFNAMRMTLAGARVELEMQWGHIGWSVPSAFGNAMGSQDRQHVVMVGDGSFQLTAQEVAQMVRYELPVIIFLINNRGYVIEIAIHDGPYNYIKNWDYAGLMEVFNAGEGHGLGLKATTPKELTEAIARAKANTRGPTLIECQIDRTDCTDMLVQWGRKVASTNARKTTLA
notes: coupled test with yeast ADH
For the protein B1, the Km in data set [1] (pH 5.0, 25° C., normal Michaelis-Menten kinetics, pH 5.0) turned out to be 390 µM; in data set [1] (setting [4]), 5100 µM.

B2: Zymomonas mobilis pyruvate decarboxylase (ZmoPDC), recombinant, wild type, SEQ ID NO:8 (Zymomonas mobilis subsp. mobilis ZM4 = ATCC 31821) (protein)
chain: MSYTVGTYLAERLVQIGLKHHFAVAGDYNLVLLDNLLLNKNMEQVYCCNELNCGFSAEGYARAKGAAAAVVTYSVGALSAFDAIGGAYAENLPVILISGAPNNNDHAAGHVLHHALGKTDYHYQLEMAKNITAAAEAIYTPEEAPAKIDHVIKTALREKKPVYLEIACNIASMPCAAPGPASALFNDEASDEASLNAAVEETLKFIANRDKVAVLVGSKLRAAGAEEAAVKFADALGGAVATMAAAKSFFPEENPHYIGTSWGEVSYPGVEKTMKEADAVIALAPVFNDYSTTGWTDIPDPKKLVLAEPRSVVVNGVRFPSVHLKDYLTRLAQKVSKKTGALDFFKSLNAGELKKAAPADPSAPLVNAEIARQVEALLTPNTTVIAETGDSWFNAQRMKLPNGARVEYEMQWGHIGWSVPAAFGYAVGAPERRNILMVGDGSFQLTAQEVAQMVRLKLPVIIFLINNYGYTIEVMIHDGPYNNIKNWDYAGLMEVFNGNGGYDSGAGKGLKAKTGGELAEAIKVALANTDGPTLIECFIGREDCTEELVKWGKRVAAANSRKPVNKLL
notes: coupled test with yeast ADH
For B2, the Michaelis constant (Km) came to 430 µM in data set [2] (pH 6.0, normal Michaelis-Menten kinetics, pH 6.0, 25.0 °C) and 940 µM in data set [2] (setting [4]).

B3: Zymobacter palmae pyruvate decarboxylase (ZpaPDC), recombinant, wild type, SEQ ID NO:2 (Zymobacter palmae) (protein)
chain: MYTVGMYLAERLAQIGLKHHFAVAGDYNLVLLDQLLLNKDMEQVYCCNELNCGFSAEGYARARGAAAAIVTFSVGAISAMNAIGGAYAENLPVILISGSPNTNDYGTGHILHHTIGTTDYNYQLEMVKHVTCARESIVSAEEAPAKIDHVIRTALRERKPAYLEIACNVAGAECVRPGPINSLLRELEVDQTSVTAAVDAAVEWLQDRQNVVMLVGSKLRAAAAEKQAVALADRLGCAVTIMAAEKGFFPEDHPNFRGLYWGEVSSEGAQELVENADAILCLAPVFNDYATVGWNSWPKGDNVMVMDTDRVTFAGQSFEGLSLSTFAAALAEKAPSRPATTQGTQAPVLGIEAAEPNAPLTNDEMTRQIQSLITSDTTLTAETGDSWFNASRMPIPGGARVELEMQWGHIGWSVPSAFGNAVGSPERRHIMMVGDGSFQLTAQEVAQMIRYEIPVIIFLINNRGYVIEIAIHDGPYNYIKNWNYAGLIDVFNDEDGHGLGLKASTGAELEGAIKKALDNRRGPTLIECNIAQDDCTETLIAWGKRVAATNSRKPQA
notes: coupled test with yeast ADH
As for B3, the Km in data set [3] (pH 6.0, 25° C., normal Michaelis-Menten kinetics, pH 6.0, 25.0 °C) is 240 µM; in data set [3] (pH 7.0, normal Michaelis-Menten kinetics, pH 7.0) it was 710 µM.
